Measured values published in patent US20170290876A1 (Novartis, published 2017).

T1: human VEGF (human, UniProt P15692 207-395, biotinylated (site not stated))
T1 construct: Biotinylated human VEGF generated internally; also called hVEGF; hVEGF-biotin
T1 sequence: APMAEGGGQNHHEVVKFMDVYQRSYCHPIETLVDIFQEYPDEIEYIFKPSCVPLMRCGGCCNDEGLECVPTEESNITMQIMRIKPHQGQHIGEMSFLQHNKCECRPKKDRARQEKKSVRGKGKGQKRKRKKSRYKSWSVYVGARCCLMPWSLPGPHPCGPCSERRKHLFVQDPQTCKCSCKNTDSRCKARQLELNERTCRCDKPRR


Biological target: T1, human VEGF
Experiment: Biacore SPR, hVEGF

Binder | Kd | koff | kon
NVS4 heavy chain variant H101K (Fab, V domains shown, CDR variant of NVS4) VH: EVQLVESGGGLVQPGGSLRLSCTASGFSLTDYYYMTWVRQAPGKGLEWVGFIDPDDDPYYATWAKGRFTISRDNSKNTLYLQMNSLRAEDTAVYYCAGGDKNSGWGLDIWGQGTLVTVSS VL: EIVMTQSPSTLSASVGDRVIITCQASEIIHSWLAWYQQKPGKAPKLLIYLASTLASGVPSRFSGSGSGAEFTLTISSLQPDDFATYYCQNVYLASTNGANFGQGTKLTVLK | 0.593 nM | 0.000773 s⁻¹ | 1.3e+06 M⁻¹ s⁻¹
NVS4 heavy chain variant D31S + Y32K (Fab, V domains shown, CDR variant of NVS4) VH: EVQLVESGGGLVQPGGSLRLSCTASGFSLTSKYYMTWVRQAPGKGLEWVGFIDPDDDPYYATWAKGRFTISRDNSKNTLYLQMNSLRAEDTAVYYCAGGDHNSGWGLDIWGQGTLVTVSS VL: EIVMTQSPSTLSASVGDRVIITCQASEIIHSWLAWYQQKPGKAPKLLIYLASTLASGVPSRFSGSGSGAEFTLTISSLQPDDFATYYCQNVYLASTNGANFGQGTKLTVLK | 0.185 nM | 0.000958 s⁻¹ | 5.18e+06 M⁻¹ s⁻¹
NVS4 heavy chain variant D55Q + D56N (Fab, V domains shown, CDR variant of NVS4) VH: EVQLVESGGGLVQPGGSLRLSCTASGFSLTDYYYMTWVRQAPGKGLEWVGFIDPQNDPYYATWAKGRFTISRDNSKNTLYLQMNSLRAEDTAVYYCAGGDHNSGWGLDIWGQGTLVTVSS VL: EIVMTQSPSTLSASVGDRVIITCQASEIIHSWLAWYQQKPGKAPKLLIYLASTLASGVPSRFSGSGSGAEFTLTISSLQPDDFATYYCQNVYLASTNGANFGQGTKLTVLK | 0.0909 nM | 0.000656 s⁻¹ | 7.22e+06 M⁻¹ s⁻¹
NVS4 heavy chain variant D55Q (Fab, V domains shown, CDR variant of NVS4) VH: EVQLVESGGGLVQPGGSLRLSCTASGFSLTDYYYMTWVRQAPGKGLEWVGFIDPQDDPYYATWAKGRFTISRDNSKNTLYLQMNSLRAEDTAVYYCAGGDHNSGWGLDIWGQGTLVTVSS VL: EIVMTQSPSTLSASVGDRVIITCQASEIIHSWLAWYQQKPGKAPKLLIYLASTLASGVPSRFSGSGSGAEFTLTISSLQPDDFATYYCQNVYLASTNGANFGQGTKLTVLK | 0.0823 nM | 0.000541 s⁻¹ | 6.57e+06 M⁻¹ s⁻¹
NVS4 heavy chain variant Y59H (Fab, V domains shown, CDR variant of NVS4) VH: EVQLVESGGGLVQPGGSLRLSCTASGFSLTDYYYMTWVRQAPGKGLEWVGFIDPDDDPHYATWAKGRFTISRDNSKNTLYLQMNSLRAEDTAVYYCAGGDHNSGWGLDIWGQGTLVTVSS VL: EIVMTQSPSTLSASVGDRVIITCQASEIIHSWLAWYQQKPGKAPKLLIYLASTLASGVPSRFSGSGSGAEFTLTISSLQPDDFATYYCQNVYLASTNGANFGQGTKLTVLK | 0.0563 nM | 0.000119 s⁻¹ | 2.11e+06 M⁻¹ s⁻¹
NVS4 light chain variant H30K (Fab, V domains shown, CDR variant of NVS4) VH: EVQLVESGGGLVQPGGSLRLSCTASGFSLTDYYYMTWVRQAPGKGLEWVGFIDPDDDPYYATWAKGRFTISRDNSKNTLYLQMNSLRAEDTAVYYCAGGDHNSGWGLDIWGQGTLVTVSS VL: EIVMTQSPSTLSASVGDRVIITCQASEIIKSWLAWYQQKPGKAPKLLIYLASTLASGVPSRFSGSGSGAEFTLTISSLQPDDFATYYCQNVYLASTNGANFGQGTKLTVLK | 0.0355 nM | 0.000149 s⁻¹ | 4.22e+06 M⁻¹ s⁻¹
NVS4 heavy chain variant D55N (Fab, V domains shown, CDR variant of NVS4) VH: EVQLVESGGGLVQPGGSLRLSCTASGFSLTDYYYMTWVRQAPGKGLEWVGFIDPNDDPYYATWAKGRFTISRDNSKNTLYLQMNSLRAEDTAVYYCAGGDHNSGWGLDIWGQGTLVTVSS VL: EIVMTQSPSTLSASVGDRVIITCQASEIIHSWLAWYQQKPGKAPKLLIYLASTLASGVPSRFSGSGSGAEFTLTISSLQPDDFATYYCQNVYLASTNGANFGQGTKLTVLK | 0.103 nM | 0.000654 s⁻¹ | 6.35e+06 M⁻¹ s⁻¹
NVS4 heavy chain variant D57N (Fab, V domains shown, CDR variant of NVS4) VH: EVQLVESGGGLVQPGGSLRLSCTASGFSLTDYYYMTWVRQAPGKGLEWVGFIDPDDNPYYATWAKGRFTISRDNSKNTLYLQMNSLRAEDTAVYYCAGGDHNSGWGLDIWGQGTLVTVSS VL: EIVMTQSPSTLSASVGDRVIITCQASEIIHSWLAWYQQKPGKAPKLLIYLASTLASGVPSRFSGSGSGAEFTLTISSLQPDDFATYYCQNVYLASTNGANFGQGTKLTVLK | 0.132 nM | 0.0014 s⁻¹ | 1.06e+07 M⁻¹ s⁻¹
NVS4 heavy chain variant D100N + H101K (Fab, V domains shown, CDR variant of NVS4) VH: EVQLVESGGGLVQPGGSLRLSCTASGFSLTDYYYMTWVRQAPGKGLEWVGFIDPDDDPYYATWAKGRFTISRDNSKNTLYLQMNSLRAEDTAVYYCAGGNKNSGWGLDIWGQGTLVTVSS VL: EIVMTQSPSTLSASVGDRVIITCQASEIIHSWLAWYQQKPGKAPKLLIYLASTLASGVPSRFSGSGSGAEFTLTISSLQPDDFATYYCQNVYLASTNGANFGQGTKLTVLK | 0.368 nM | 0.000363 s⁻¹ | 983000 M⁻¹ s⁻¹
NVS4 heavy chain variant Y59F (Fab, V domains shown, CDR variant of NVS4) VH: EVQLVESGGGLVQPGGSLRLSCTASGFSLTDYYYMTWVRQAPGKGLEWVGFIDPDDDPFYATWAKGRFTISRDNSKNTLYLQMNSLRAEDTAVYYCAGGDHNSGWGLDIWGQGTLVTVSS VL: EIVMTQSPSTLSASVGDRVIITCQASEIIHSWLAWYQQKPGKAPKLLIYLASTLASGVPSRFSGSGSGAEFTLTISSLQPDDFATYYCQNVYLASTNGANFGQGTKLTVLK | 0.0311 nM | 0.000104 s⁻¹ | 3.34e+06 M⁻¹ s⁻¹
NVS4 heavy chain variant N102K (Fab, V domains shown, CDR variant of NVS4) VH: EVQLVESGGGLVQPGGSLRLSCTASGFSLTDYYYMTWVRQAPGKGLEWVGFIDPDDDPYYATWAKGRFTISRDNSKNTLYLQMNSLRAEDTAVYYCAGGDHKSGWGLDIWGQGTLVTVSS VL: EIVMTQSPSTLSASVGDRVIITCQASEIIHSWLAWYQQKPGKAPKLLIYLASTLASGVPSRFSGSGSGAEFTLTISSLQPDDFATYYCQNVYLASTNGANFGQGTKLTVLK | 0.0169 nM | 4.84e-05 s⁻¹ | 4.77e+06 M⁻¹ s⁻¹
NVS4 heavy chain variant D55N + D56N (Fab, V domains shown, CDR variant of NVS4) VH: EVQLVESGGGLVQPGGSLRLSCTASGFSLTDYYYMTWVRQAPGKGLEWVGFIDPNNDPYYATWAKGRFTISRDNSKNTLYLQMNSLRAEDTAVYYCAGGDHNSGWGLDIWGQGTLVTVSS VL: EIVMTQSPSTLSASVGDRVIITCQASEIIHSWLAWYQQKPGKAPKLLIYLASTLASGVPSRFSGSGSGAEFTLTISSLQPDDFATYYCQNVYLASTNGANFGQGTKLTVLK | 0.108 nM | 0.000951 s⁻¹ | 8.82e+06 M⁻¹ s⁻¹
NVS4 heavy chain variant Y34H (Fab, V domains shown, CDR variant of NVS4) VH: EVQLVESGGGLVQPGGSLRLSCTASGFSLTDYYHMTWVRQAPGKGLEWVGFIDPDDDPYYATWAKGRFTISRDNSKNTLYLQMNSLRAEDTAVYYCAGGDHNSGWGLDIWGQGTLVTVSS VL: EIVMTQSPSTLSASVGDRVIITCQASEIIHSWLAWYQQKPGKAPKLLIYLASTLASGVPSRFSGSGSGAEFTLTISSLQPDDFATYYCQNVYLASTNGANFGQGTKLTVLK | 0.15 nM | 0.000445 s⁻¹ | 2.97e+06 M⁻¹ s⁻¹

Now those with a lower Kd, led by results:

Kd | koff | kon | Binder
0.00409 nM | 4.7e-05 s⁻¹ | 1.15e+07 M⁻¹ s⁻¹ | NVS4 heavy chain variant D31N (Fab, V domains shown, CDR variant of NVS4) VH: EVQLVESGGGLVQPGGSLRLSCTASGFSLTNYYYMTWVRQAPGKGLEWVGFIDPDDDPYYATWAKGRFTISRDNSKNTLYLQMNSLRAEDTAVYYCAGGDHNSGWGLDIWGQGTLVTVSS VL: EIVMTQSPSTLSASVGDRVIITCQASEIIHSWLAWYQQKPGKAPKLLIYLASTLASGVPSRFSGSGSGAEFTLTISSLQPDDFATYYCQNVYLASTNGANFGQGTKLTVLK
0.00668 nM | 4.54e-05 s⁻¹ | 6.8e+06 M⁻¹ s⁻¹ | NVS4 heavy chain variant D108Q (Fab, V domains shown, CDR variant of NVS4) VH: EVQLVESGGGLVQPGGSLRLSCTASGFSLTDYYYMTWVRQAPGKGLEWVGFIDPDDDPYYATWAKGRFTISRDNSKNTLYLQMNSLRAEDTAVYYCAGGDHNSGWGLQIWGQGTLVTVSS VL: EIVMTQSPSTLSASVGDRVIITCQASEIIHSWLAWYQQKPGKAPKLLIYLASTLASGVPSRFSGSGSGAEFTLTISSLQPDDFATYYCQNVYLASTNGANFGQGTKLTVLK
0.00886 nM | 4.67e-05 s⁻¹ | 5.27e+06 M⁻¹ s⁻¹ | NVS4 heavy chain variant D31S (Fab, V domains shown, CDR variant of NVS4) VH: EVQLVESGGGLVQPGGSLRLSCTASGFSLTSYYYMTWVRQAPGKGLEWVGFIDPDDDPYYATWAKGRFTISRDNSKNTLYLQMNSLRAEDTAVYYCAGGDHNSGWGLDIWGQGTLVTVSS VL: EIVMTQSPSTLSASVGDRVIITCQASEIIHSWLAWYQQKPGKAPKLLIYLASTLASGVPSRFSGSGSGAEFTLTISSLQPDDFATYYCQNVYLASTNGANFGQGTKLTVLK
0.00765 nM | 4.84e-05 s⁻¹ | 6.33e+06 M⁻¹ s⁻¹ | NVS4 heavy chain variant D56N (Fab, V domains shown, CDR variant of NVS4) VH: EVQLVESGGGLVQPGGSLRLSCTASGFSLTDYYYMTWVRQAPGKGLEWVGFIDPDNDPYYATWAKGRFTISRDNSKNTLYLQMNSLRAEDTAVYYCAGGDHNSGWGLDIWGQGTLVTVSS VL: EIVMTQSPSTLSASVGDRVIITCQASEIIHSWLAWYQQKPGKAPKLLIYLASTLASGVPSRFSGSGSGAEFTLTISSLQPDDFATYYCQNVYLASTNGANFGQGTKLTVLK
0.00985 nM | 5.73e-05 s⁻¹ | 5.82e+06 M⁻¹ s⁻¹ | NVS4 heavy chain variant D108N (Fab, V domains shown, CDR variant of NVS4) VH: EVQLVESGGGLVQPGGSLRLSCTASGFSLTDYYYMTWVRQAPGKGLEWVGFIDPDDDPYYATWAKGRFTISRDNSKNTLYLQMNSLRAEDTAVYYCAGGDHNSGWGLNIWGQGTLVTVSS VL: EIVMTQSPSTLSASVGDRVIITCQASEIIHSWLAWYQQKPGKAPKLLIYLASTLASGVPSRFSGSGSGAEFTLTISSLQPDDFATYYCQNVYLASTNGANFGQGTKLTVLK
0.00549 nM | 2.57e-05 s⁻¹ | 4.68e+06 M⁻¹ s⁻¹ | NVS4 heavy chain variant D100N (Fab, V domains shown, CDR variant of NVS4) VH: EVQLVESGGGLVQPGGSLRLSCTASGFSLTDYYYMTWVRQAPGKGLEWVGFIDPDDDPYYATWAKGRFTISRDNSKNTLYLQMNSLRAEDTAVYYCAGGNHNSGWGLDIWGQGTLVTVSS VL: EIVMTQSPSTLSASVGDRVIITCQASEIIHSWLAWYQQKPGKAPKLLIYLASTLASGVPSRFSGSGSGAEFTLTISSLQPDDFATYYCQNVYLASTNGANFGQGTKLTVLK
